Reference: article PMC2669833

Molecular target: Alvinella pompejana Cu, Zn superoxide dismutase (Alvinella pompejana)
Assay: SAXS

## Alvinella pompejana Cu, Zn superoxide dismutase (enzyme)
  stoichiometry N: 2
